Reference: patent EP4755449A2 (CHUGAI SEIYAKU KABUSHIKI KAISHA, dated 2026)
Numbering of substitutions follows the chain as printed. Like-named read-outs stand apart in the source and are kept apart here.

Tests used:
human latent myostatin [1] = target: T1, human latent myostatin (human, UniProt O14793 25-266; O14793 267-375); test: SPR 37C pH7.4
T1 construct: non-covalent complex of two propeptides and the mature homodimer; also called human myostatin latent form
T1 sequence 1: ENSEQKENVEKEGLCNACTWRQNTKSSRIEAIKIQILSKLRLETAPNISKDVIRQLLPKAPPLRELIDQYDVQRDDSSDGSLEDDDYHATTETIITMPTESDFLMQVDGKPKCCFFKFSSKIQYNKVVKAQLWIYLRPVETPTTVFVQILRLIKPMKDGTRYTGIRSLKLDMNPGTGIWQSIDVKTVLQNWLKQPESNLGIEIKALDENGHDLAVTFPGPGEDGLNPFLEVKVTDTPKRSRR
T1 sequence 2: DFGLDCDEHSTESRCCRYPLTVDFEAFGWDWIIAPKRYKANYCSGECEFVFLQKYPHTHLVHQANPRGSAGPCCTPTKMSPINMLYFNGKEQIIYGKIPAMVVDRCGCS

[2] = target: T2, cynomolgus monkey latent myostatin (cynomolgus monkey, UniProt Q95J86 25-266; Q95J86 267-375, limits assumed); test: SPR 37C pH7.4
T2 construct: also called cyno latent myostatin
T2 sequence 1: T1 sequence 1 with V52A
T2 sequence 2: T1 sequence 2

mouse latent myostatin = target: T3, mouse latent myostatin (mouse, UniProt O08689 26-267; O08689 268-376); test: SPR 37C pH7.4
T3 sequence 1: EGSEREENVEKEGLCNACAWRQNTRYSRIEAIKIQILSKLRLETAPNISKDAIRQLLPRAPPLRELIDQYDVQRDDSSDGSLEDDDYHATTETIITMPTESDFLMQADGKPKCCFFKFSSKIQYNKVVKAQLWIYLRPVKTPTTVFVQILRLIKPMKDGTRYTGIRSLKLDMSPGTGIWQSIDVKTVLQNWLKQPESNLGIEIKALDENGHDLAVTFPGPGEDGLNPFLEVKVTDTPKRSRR
T3 sequence 2: T1 sequence 2

mature myostatin = target: T4, mature myostatin (human (mature form 100% identical in …, UniProt O08689 268-376 (mouse entry))); test: ELISA, biotinylated antigen on streptavidin plate
T4 construct: biotinylated in the ELISA; also called myostatin mature form; active myostatin
T4 sequence: T1 sequence 2

[3] = target: T5, Human GDF11 with Flag-tag on N-terminus (human, UniProt O95390 11-407); test: ELISA, biotinylated antigen on streptavidin plate
T5 construct: processing of the expressed protein not described; also called Flag-hGDF11; human latent GDF11
T5 sequence: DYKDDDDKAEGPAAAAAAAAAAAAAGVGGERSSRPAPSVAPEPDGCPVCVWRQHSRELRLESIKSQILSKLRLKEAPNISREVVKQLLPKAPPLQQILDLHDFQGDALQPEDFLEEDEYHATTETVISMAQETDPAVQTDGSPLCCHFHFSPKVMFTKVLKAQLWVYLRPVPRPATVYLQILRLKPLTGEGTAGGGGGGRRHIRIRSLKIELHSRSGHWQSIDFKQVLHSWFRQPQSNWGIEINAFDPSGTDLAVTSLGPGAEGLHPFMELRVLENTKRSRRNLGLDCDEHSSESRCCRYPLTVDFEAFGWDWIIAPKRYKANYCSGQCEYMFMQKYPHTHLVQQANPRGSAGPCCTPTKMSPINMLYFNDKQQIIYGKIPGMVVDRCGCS

human latent myostatin [4] = target: T1, human latent myostatin; test: SPR 37C pH7.4; remark: listed apart in the source

- Kd (human latent myostatin [1]): 0.0766 nM
- koff (human latent myostatin [1]): 8.65e-05 s⁻¹
- kon (human latent myostatin [1]): 1.13e+06 M⁻¹ s⁻¹
- Kd [2]: 0.0717 nM
- koff [2]: 7.79e-05 s⁻¹
- kon [2]: 1.09e+06 M⁻¹ s⁻¹
- Kd (mouse latent myostatin): 0.0579 nM
- koff (mouse latent myostatin): 8.16e-05 s⁻¹
- kon (mouse latent myostatin): 1.41e+06 M⁻¹ s⁻¹
- binding result (mature myostatin): no binding
- binding result [3]: no binding
- Kd (human latent myostatin [4]): 0.0766 nM
- koff (human latent myostatin [4]): 8.65e-05 s⁻¹
- kon (human latent myostatin [4]): 1.13e+06 M⁻¹ s⁻¹
B1: MS_MST1032Ha-G1m/MST1032La-k0MC (antibody, human IgG1, kappa, V domains shown)
VH: QSLEESGGRLVTPGGSLTVTCRVSGIDLSSYDISWVRQAPGKGLEWIGIISYAGSTYYASWAKGRFTISKTSTTVDLKMTSLTTEDTATYFCARGVPAYSTGGDLWGPGTLVTVSS
VL: AQVLTQTASSVSAAVGGTVTINCQSSQSVYDNNWLSWFQQKPGQPPKLLIYWASTLASGVPSRFKGSGSGTQFTLTISDLECDDAATYYCAGGYGGGLYAFGGGTKVEIKR
notes: rabbit/human chimeric; also called MST1032-G1m
